The text below walks through data of doi:10.1101/2024.05.10.593590.

The Kd is the constant that tells how readily two partners part at equilibrium. A high value points to a looser complex.

Targets include U-CTD (hnRNP U RBD) (human, UniProt Q00839 673-825); U(702-809) (human, UniProt Q00839 702-809); U(702-825) (human, UniProt Q00839); U(702-777) (human, UniProt Q00839 702-777); U(702-793) (human, UniProt Q00839 702-793); U(702-761) (human, UniProt Q00839 702-761).
What all share (assay): fluorescence anisotropy
On the technique in general: Polarisation of emitted light reports the rotation of a fluorescent probe.

Data set [1] addresses T1, RGG1 (minimal first RGG/RG motif) (human, UniProt Q00839 702-745).
T1 chain: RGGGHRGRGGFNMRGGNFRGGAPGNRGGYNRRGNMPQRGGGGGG

A further data set has as its target T2, U(702-745) (human, UniProt Q00839 702-745).
T2 chain: T1 chain

Sequence of U(702-825) (Q00839 702-825): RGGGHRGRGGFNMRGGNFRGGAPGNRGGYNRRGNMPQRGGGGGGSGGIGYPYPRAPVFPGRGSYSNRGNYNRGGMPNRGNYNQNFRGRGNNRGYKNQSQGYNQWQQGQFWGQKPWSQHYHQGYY
Sequence of U(702-793) (Q00839 702-793): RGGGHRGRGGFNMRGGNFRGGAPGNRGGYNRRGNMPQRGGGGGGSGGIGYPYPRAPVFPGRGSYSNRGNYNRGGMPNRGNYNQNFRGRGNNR
Sequence of U-CTD (hnRNP U RBD) (Q00839 673-825): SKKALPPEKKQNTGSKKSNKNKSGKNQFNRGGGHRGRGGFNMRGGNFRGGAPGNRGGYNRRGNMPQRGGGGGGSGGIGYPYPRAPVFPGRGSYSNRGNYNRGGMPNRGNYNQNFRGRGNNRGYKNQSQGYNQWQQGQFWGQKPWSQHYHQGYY
Sequence of U(702-809) (Q00839 702-809): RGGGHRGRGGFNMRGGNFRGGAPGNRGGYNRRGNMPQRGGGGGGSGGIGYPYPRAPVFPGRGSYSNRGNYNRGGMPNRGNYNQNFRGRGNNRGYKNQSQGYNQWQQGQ
Sequence of U(702-777) (Q00839 702-777): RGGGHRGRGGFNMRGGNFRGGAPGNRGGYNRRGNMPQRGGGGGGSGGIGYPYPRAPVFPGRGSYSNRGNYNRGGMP

B1: MTRNR2L6 antisense 150 nt (ssRNA)
RNA: GUGAUCCAACAUCGAGGUCGUAAACCCUAUUGUCAAUAUGGACUCUAGAAUAGGAUUGCGCUGUUAUCCCUAGGGUAACUUGUUCCGUUGAUCAAAUUAUUGGGUCAAUAUAUGUAUAGUAAUUCGCUUAAACUUGUUUAGUCUUAGCAC
For B1, the “apparent K (half saturation)” value with U-CTD (hnRNP U RBD) amounted to 190 ± 10 nM.

B2: Antisense Syncrip (structured_RNA)
RNA: GAAGCUCACGCCGCUGGCAGCAAACCCGAUCCAGUUCCACUCGCCUCCGAGCGCGCUCCCGGUGCGCGCGCGCGCCCCCGCGUGACCCCCCCUUCCCUUCCCUUCCCUUCCCUCCCCUCCCUC
Turning to B2, the Kd with U(702-809) was found to be 1600 ± 100 nM; with U(702-825) it was 570 ± 10 nM; with U(702-777), 14000 ± 2000 nM; in the data set with U(702-793) it was 3000 ± 200 nM.

For GCUUAAACUUGUUUAGUCUUAGCAC (ssRNA) [MTRNR2L6 antisense 25 nt], the “apparent K (half saturation)” value in the data set with U-CTD (hnRNP U RBD) was determined as 6000 ± 300 nM.

With GUGCUAAGACUAAACAAGUUUAAGC (ssRNA) [MTRNR2L6 sense 25 nt], the “apparent K (half saturation)” value in the data set with U-CTD (hnRNP U RBD) was determined as 4900 ± 700 nM.

B3: MTRNR2L6 sense 75 nt (ssRNA)
RNA: GUGCUAAGACUAAACAAGUUUAAGCGAAUUACUAUACAUAUAUUGACCCAAUAAUUUGAUCAACGGAACAAGUUA
In the case of B3, in the data set with U-CTD (hnRNP U RBD), the “apparent K (half saturation)” value came out at 320 ± 30 nM.

Molecule GAGGGAGGGGAGGGAAGGGAAGGGAAGGGAAGGGGGGGAAACUUC (structured_RNA) [Syncrip G-quad] returned a Kd in data set [1] of approximately 1000 nM.

B4: MTRNR2L6 antisense 300 nt (ssRNA)
RNA: GUUGUUUUAAAAAGACUUAUAGAUGGGAGGUGUGGAGGACUUAAAUACACAUGUACCAGACCUGGCUUGCUCCGGUCUGAACUCAGACCACGUAGGACUUUAAUCAUUGAACAAAUGAACCCUUGAUAGCAGCUACACCAUUAGGAUGUCCUGAUCCAACAUCGAGGUCGUAAACCCUAUUGUCAAUAUGGACUCUAGAAUAGGAUUGCGCUGUUAUCCCUAGGGUAACUUGUUCCGUUGAUCAAAUUAUUGGGUCAAUAUAUGUAUAGUAAUUCGCUUAAACUUGUUUAGUCUUAGCAC
Take B4: in the data set with U-CTD (hnRNP U RBD), the “apparent K (half saturation)” value was found to be 110 ± 10 nM.

B5: MTRNR2L6 antisense 200 nt (ssRNA)
RNA: GAAUCAUUGAACAAAUGAACCCUUGAUAGCAGCUACACCAUUAGGAUGUCCUGAUCCAACAUCGAGGUCGUAAACCCUAUUGUCAAUAUGGACUCUAGAAUAGGAUUGCGCUGUUAUCCCUAGGGUAACUUGUUCCGUUGAUCAAAUUAUUGGGUCAAUAUAUGUAUAGUAAUUCGCUUAAACUUGUUUAGUCUUAGCAC
Consider B5, for which, in the data set with U-CTD (hnRNP U RBD), the “apparent K (half saturation)” value was 230 ± 10 nM.

B6: MTRNR2L6 (structured_RNA)
RNA: GCUAUACAUAUAUUGACCCAAUAAUUUGAUCAACGGAACAAGUUACCCUAGGGAUAACAGCGCAAUCCUAUUCUAGAGUCCAUAUUGACAAUAGGGUUUACGACCUCGAUGUUGGAUCAGGACAUCCUAAUGGUGUAGC
B6: the Kd with U(702-809) amounted to 710 ± 10 nM; with U(702-825), 220 ± 10 nM; in the data set with U(702-777) it was 4200 ± 500 nM; in the data set with U(702-793), 1100 ± 100 nM.

B7: MTRNR2L6 sense 200 nt (ssRNA)
RNA: GUGCUAAGACUAAACAAGUUUAAGCGAAUUACUAUACAUAUAUUGACCCAAUAAUUUGAUCAACGGAACAAGUUACCCUAGGGAUAACAGCGCAAUCCUAUUCUAGAGUCCAUAUUGACAAUAGGGUUUACGACCUCGAUGUUGGAUCAGGACAUCCUAAUGGUGUAGCUGCUAUCAAGGGUUCAUUUGUUCAAUGAUUA
On to B7, for which the “apparent K (half saturation)” value in the data set with U-CTD (hnRNP U RBD) stood at 210 ± 20 nM.

B8: MTRNR2L6 antisense 100 nt (ssRNA)
RNA: GAGGAUUGCGCUGUUAUCCCUAGGGUAACUUGUUCCGUUGAUCAAAUUAUUGGGUCAAUAUAUGUAUAGUAAUUCGCUUAAACUUGUUUAGUCUUAGCAC
Take B8: the “apparent K (half saturation)” value with U-CTD (hnRNP U RBD) was 280 ± 20 nM.

B9: Antisense MTRNR2L6 (structured_RNA)
RNA: GGCUACACCAUUAGGAUGUCCUGAUCCAACAUCGAGGUCGUAAACCCUAUUGUCAAUAUGGACUCUAGAAUAGGAUUGCGCUGUUAUCCCUAGGGUAACUUGUUCCGUUGAUCAAAUUAUUGGGUCAAUAUAUGUAUAG
B9: the Kd with U(702-809) was found to be 810 ± 60 nM; in the data set with U(702-825) it was 450 ± 10 nM; in the data set with U(702-777), 3900 ± 900 nM; with U(702-793), 1200 ± 100 nM.

B10: MTRNR2L6 antisense 75 nt (ssRNA)
RNA: GAACUUGUUCCGUUGAUCAAAUUAUUGGGUCAAUAUAUGUAUAGUAAUUCGCUUAAACUUGUUUAGUCUUAGCAC
For the molecule B10, in the data set with U-CTD (hnRNP U RBD), the “apparent K (half saturation)” value stood at 410 ± 30 nM.

As to GUGCUAAGACUAAACAAGUUUAAGCGAAUUACUAUACAUAUAUUGACCCA (ssRNA) [MTRNR2L6 sense 50 nt], in the data set with U-CTD (hnRNP U RBD), the “apparent K (half saturation)” value was found to be 1000 ± 100 nM.

B11: MTRNR2L6 sense 250 nt (ssRNA)
RNA: GUGCUAAGACUAAACAAGUUUAAGCGAAUUACUAUACAUAUAUUGACCCAAUAAUUUGAUCAACGGAACAAGUUACCCUAGGGAUAACAGCGCAAUCCUAUUCUAGAGUCCAUAUUGACAAUAGGGUUUACGACCUCGAUGUUGGAUCAGGACAUCCUAAUGGUGUAGCUGCUAUCAAGGGUUCAUUUGUUCAAUGAUUAAAGUCCUACGUGGUCUGAGUUCAGACCGGAGCAAGCCAGGUCUGGUACAU
B11: the “apparent K (half saturation)” value in the data set with U-CTD (hnRNP U RBD) was 100 ± 10 nM.

B12: Syncrip (structured_RNA)
RNA: GAGGGAGGGGAGGGAAGGGAAGGGAAGGGAAGGGGGGGUCACGCGGGGGCGCGCGCGCGCACCGGGAGCGCGCUCGGAGGCGAGUGGAACUGGAUCGGGUUUGCUGCCAGCGGCGUGAGCUUC
On to B12, for which the Kd with U(702-809) is 140 ± 50 nM; in the data set with U(702-825), 70 ± 19 nM; in the data set with U(702-777), 450 ± 160 nM; in data set [1], approximately 1000 nM; in the data set with U(702-793) it was 180 ± 50 nM; with U(702-761), 1100 ± 400 nM. Further, the Kd with U(702-745) was 910 ± 150 nM.

B13: MTRNR2L6 sense 300 nt (ssRNA)
RNA: GUGCUAAGACUAAACAAGUUUAAGCGAAUUACUAUACAUAUAUUGACCCAAUAAUUUGAUCAACGGAACAAGUUACCCUAGGGAUAACAGCGCAAUCCUAUUCUAGAGUCCAUAUUGACAAUAGGGUUUACGACCUCGAUGUUGGAUCAGGACAUCCUAAUGGUGUAGCUGCUAUCAAGGGUUCAUUUGUUCAAUGAUUAAAGUCCUACGUGGUCUGAGUUCAGACCGGAGCAAGCCAGGUCUGGUACAUGUGUAUUUAAGUCCUCCACACCUCCCAUCUAUAAGUCUUUUUAAAACAAA
With B13, in the data set with U-CTD (hnRNP U RBD), the “apparent K (half saturation)” value was 110 ± 10 nM.

B14: MTRNR2L6 antisense 250 nt (ssRNA)
RNA: GUGUACCAGACCUGGCUUGCUCCGGUCUGAACUCAGACCACGUAGGACUUUAAUCAUUGAACAAAUGAACCCUUGAUAGCAGCUACACCAUUAGGAUGUCCUGAUCCAACAUCGAGGUCGUAAACCCUAUUGUCAAUAUGGACUCUAGAAUAGGAUUGCGCUGUUAUCCCUAGGGUAACUUGUUCCGUUGAUCAAAUUAUUGGGUCAAUAUAUGUAUAGUAAUUCGCUUAAACUUGUUUAGUCUUAGCAC
In the case of B14, the “apparent K (half saturation)” value in the data set with U-CTD (hnRNP U RBD) was found to be 110 ± 10 nM.

B15: MTRNR2L6 sense 150 nt (ssRNA)
RNA: GUGCUAAGACUAAACAAGUUUAAGCGAAUUACUAUACAUAUAUUGACCCAAUAAUUUGAUCAACGGAACAAGUUACCCUAGGGAUAACAGCGCAAUCCUAUUCUAGAGUCCAUAUUGACAAUAGGGUUUACGACCUCGAUGUUGGAUCAG
Consider B15, for which the “apparent K (half saturation)” value in the data set with U-CTD (hnRNP U RBD) stood at 130 ± 10 nM.

B16: MTRNR2L6 sense 100 nt (ssRNA)
RNA: GUGCUAAGACUAAACAAGUUUAAGCGAAUUACUAUACAUAUAUUGACCCAAUAAUUUGAUCAACGGAACAAGUUACCCUAGGGAUAACAGCGCAAUCCUA
As to B16, the “apparent K (half saturation)” value with U-CTD (hnRNP U RBD) was 150 ± 20 nM.

Take GGGGUCAAUAUAUGUAUAGUAAUUCGCUUAAACUUGUUUAGUCUUAGCAC (ssRNA) [MTRNR2L6 antisense 50 nt]: the “apparent K (half saturation)” value with U-CTD (hnRNP U RBD) is 480 ± 40 nM.
